Results as given in the supplement of paper PMC10567573.

B1: SMG5 (parent)
chain: QEKLQVLMAEGLLPAVKVFLDWLR

Variants of: B1
Assay: protein stability index of a GFP-peptide fusion (GPS, HEK-293T) (PSI 1-6); higher = more stable
Details: c terminus: a fixed tail appended
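Further: lentivirally expressed fusions sorted by FACS into six bins by GFP to DsRed ratio, PSI derived from sequencing read proportions per bin multiplied by bin number.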

Protein stability index of substitutions, site by site:
L13: D 1.98, R 1.37, W 2.62, Y 3.17, G 2.17, C 2.25, Q 1.71, F 1.38, N 1.99, H 2.6, S 2.78, T 1.29, K 1.62, P 2.6, A 2.36, V 2.04, E 1.09, M 2.27
M8: D 1.8, I 1.9, A 2.54, V 3.7, R 3.01, L 2.48, Q 2.85, F 1.36, T 3.02, H 4.3, C 2.26, K 2.8, N 2.57, S 1.31, G 2.85, Y 3.06, W 2.3, E 2.44
V16: A 1.67
A15: W 1.88, Q 2.21, G 2.45, H 1.99, S 2.39, C 2.72, N 2.4, M 2.05, T 3.37, Y 2.5, E 2, V 1.88, I 1.76, R 4.13, L 1.63, D 1.66, F 2.42, P 1.86
L12: A 1.61, P 3.4, E 2.32, Q 2.1, H 1.25, T 2.21, K 2.34, R 3.06, S 2.42, D 2.16, G 1.79, W 1.8, N 1.82, V 1.39, M 1.22, F 1.91, I 2.14, Y 2.32
G11: F 1.84, E 1.6, A 2.28, I 1.81, D 1.64, N 1.52, P 2.2, T 2.44, W 2.23, R 2.04, M 2.38, L 1.6, V 2.56, S 1.99, Y 2.29, K 1.6, Q 1.69, C 1.99, H 1.99
A9: K 2.21, V 1.58, Y 1.98, L 3.66, H 2.41, W 1.78, C 2.63, Q 2.82, N 3.04, R 4.4, M 1.81, E 2.95, F 1.78, P 2.41, D 1.76, S 2.19, T 1.42, I 1.82
V6: I 1.5, P 2, R 1.99, W 2.51, Q 2.02, Y 3.07, N 3.16, K 2.16, M 1.48
E10: P 2.12, R 1.95, Y 1.56, A 2.7, M 1.85, L 1.93, V 1.76, S 2.61, W 1.65, I 1.4, D 1.44, C 2.58, T 2.89, Q 2.35, H 3.21, F 1.86
P14: I 1.19, F 1.97, R 1.69, L 1.67, E 1.96, Y 2.43, M 1.75, W 2.46, N 2.38, T 2.54, G 1.17, K 3.27, A 2.25, V 1.42, S 2.32, C 1.7, Q 1.83, D 2.29
L7: C 1.54, N 2.47, A 2.4, K 2.49, F 1.8, D 1.94, P 2.26, V 2.07, E 2, R 4.07, M 1.64, W 3.24, S 1.67, Y 1.86
